Results: paper PMC8286830 (Biochemical Journal, 2021)
Where two headings read alike, the source gives them in different places.

B2: C-terminal domain of TgCEN1 (C-TgCEN1, 95–169 aa) (domain or fragment)
chain: not shown

Experiments:
dynamic light scattering [1] = biological target: the molecule itself; experiment: dynamic light scattering
dynamic light scattering [2] = biological target: the molecule itself; experiment: dynamic light scattering; remark: listed apart in the source
[3] = biological target: B2; experiment: ITC
[4] = biological target: T1, truncated variant of TgCEN1 lacking the first 21 residues (Δ21TgCEN1, 22–169) (Toxoplasma gondii, UniProt A0A125YHX7 22-169); experiment: ITC
T1 sequence (looked up): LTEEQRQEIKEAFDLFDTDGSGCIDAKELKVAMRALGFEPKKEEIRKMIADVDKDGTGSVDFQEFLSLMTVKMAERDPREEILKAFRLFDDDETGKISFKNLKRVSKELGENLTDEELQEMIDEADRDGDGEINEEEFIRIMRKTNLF

[5] = biological target: T2, N-terminal domain of TgCEN1 lacking the first 21 residues (Δ21N-TgCEN1, 22–94 aa) (Toxoplasma gondii, UniProt A0A125YHX7 22-94); experiment: ITC
T2 sequence (looked up): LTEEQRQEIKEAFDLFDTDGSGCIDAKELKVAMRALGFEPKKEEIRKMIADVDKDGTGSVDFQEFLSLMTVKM

[6] = biological target: B2; experiment: ITC; remark: listed apart in the source
[7] = biological target: T1, truncated variant of TgCEN1 lacking the …; experiment: ITC; remark: listed apart in the source

B1: N-terminal domain of TgCEN1 (N-TgCEN1, 1–94 aa) (domain or fragment, Toxoplasma gondii, UniProt A0A125YHX7 1-94, looked up)
chain: MHSRKGASSLPRGRGAGKKTELTEEQRQEIKEAFDLFDTDGSGCIDAKELKVAMRALGFEPKKEEIRKMIADVDKDGTGSVDFQEFLSLMTVKM
B1: binds (dynamic light scattering [1]).

B2: binds (dynamic light scattering [2]).

B3: P17-XPC peptide (17-residue peptide of the human xeroderma pigmentosum group C protein, N847-R863) (peptide)
peptide: NWKLLAKGLLIRERLKR
In the case of B3, the Kd [3] is reported as 6.7 nM, the dH [3] is reported as -22.9 kcal/mol and the “stoichiometry N” value [3] is reported as 0.8. For the same binder, the “dH of site 1 (high-affinity site, two-site model)” value [4] was -23.8 kcal/mol, the “dH of site 2 (low-affinity site, two-site model)” value [4] was -12.1 kcal/mol and the Kd [5] was 396 nM. The dH [5] was -17.7 kcal/mol, the “stoichiometry N” value [5] was 0.7 and the Kd [6] was 50.1 nM. The dH [6] was -28.4 kcal/mol, the “stoichiometry N” value [6] was 0.8 and the Kd [7] was 59.1 nM. The dH [7] was -31.5 kcal/mol and the “stoichiometry N” value [7] was 0.9.
